These results are taken from publication PMC3230568 (2011).

The target of the assay is p53 DBD 94-288 (Homo sapiens, UniProt P04637). In words: atomic force spectroscopy.
Sequence of p53 DBD 94-288 (P04637 94-288): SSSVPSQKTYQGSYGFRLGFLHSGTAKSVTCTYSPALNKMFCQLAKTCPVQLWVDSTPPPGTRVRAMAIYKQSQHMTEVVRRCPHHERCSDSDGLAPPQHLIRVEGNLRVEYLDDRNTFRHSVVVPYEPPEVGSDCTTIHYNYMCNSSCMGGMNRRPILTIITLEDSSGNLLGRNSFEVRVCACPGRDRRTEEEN

Take TVNLSHPGNLPKNVMGHNWVLSTAADMQ [p28 (azurin fragment, Cys-p28) 50-77]: the affinity, expressed as Kd, was 630 nM.
